Test results published in US20100112602A1 (published 2010).

Molecular target: T1, GFP-rev-p53 biosensor
T1 construct: also called rev-p53-GFP; NLS-p53-GFP construct
Test: co-localization of fluorescent biosensor components co-expressed in U2OS cells

B1: TagGFP-NES/NLS-HDM2 biosensor (other)
chain: MVSKGEELIKENMHMKLYMEGTVNNHHFKCTSEGEGKPYEGTQTMRIKVVEGGPLPFAFDILATSFMYGSRTFINHTQGIPDFFKQSFPEGFTWERVTTYEDGGVLTATQDTSLQDGCLIYNVKIRGVNFPSNGPVMQKKTLGWEANTEMLYPADGGLEGRSDMALKLVGGGHLICNFKTTYRSKKPAKNLKMPGVYYVDHRLERIKEADKETYVEQHEVAVARYCDLPSKLGHKLNSGLRSRAQASNSPQTPLHTSRVLKEDKERWEDVKEEMTSALATMCVDYEQIKIKKIEDASNPLLLKRRKKLEMCNTNMSVPTDGAVTTSQIPASEQETLVRPKPLLLKLLKSVGAQKDTYTMKEVLFYLGQYIMTKRLYDEKQQHIVYCSNDLLGDLFGVPSFSVKEHRKIYTMIYRNLVVVNQQESSDS
notes: also called NES/NLS-HDM2-RFP; shuttling component
binding result: binds
